{"source": "paper PMC11940775", "about": "“A Bifunctional Phosphoglucomutase/Phosphomannomutase from Thermococcus kodakarensis: Biophysical Analysis and Cryo-EM Structure” (Biomolecules, 2025)", "biological_target": "the molecule itself", "assay": "SEC; HiLoad 16/60 Superdex 200 pg, 50 mM HEPES pH 7.0 + 200 mM NaCl, against standard protein markers; self-association", "data": [{"protein": "Phosphoglucomutase/phosphomannomutase from Thermococcus kodakarensis (PGMTk) (enzyme, Phosphoglucomutase/phosphomannomutase PGMTk, product of gene Tk1108 of Thermococcus kodakarensis, UniProt Q68BJ6; His6 and a TEV protease site were put upstream of the gene; also called Tk1108; TK1108; source: E. coli Rosetta 2(DE3)pLysS, purified (heat treatment at 85 °C, Ni-NTA, Superdex 200 gel filtration)) MGKLFGTFGVRGIANEEITPEFALKIGMAFGTLLKREGRERPLVVVGRDTRVSGEMLKDALISGLLSTGCDVIDVGIAPTPAIQWATNHFNADGGAVITASHNPPEYNGIKLLEPNGMGLKKEREAIVEELFFSEDFHRAKWNEIGELRKEDIIKPYIEAIKNRVDVEAIKKRRPFVVVDTSNGAGSLTLPYLLRELGCKVVSVNAHPDGHFPARNPEPNEENLKGFMEIVKALGADFGVAQDGDADRAVFIDENGRFIQGDKTFALVADAVLRENGGGLLVTTIATSNLLDDIAKRNGAKVMRTKVGDLIVARALLENNGTIGGEENGGVIFPDFVLGRDGAMTTAKIVEIFAKSGKKFSELIDELPKYYQFKTKRHVEGDRKAIVAKVAELAEKKGYKIDTTDGTKIIFDDGWVLVRASGTEPIIRIFSEAKSEEKAREYLELGIKLLEEALKG", "values": [{"measurement": "stoichiometry N", "result": 4}]}]}
